Experiments:
cynomolgus CDH6 on cells = target: T1, cynomolgus CDH6 on cells (cynomolgus, UniProt A0A2K5TW62 54-790); assay: FACS on CHO-cynoCDH6 cells
T1 sequence: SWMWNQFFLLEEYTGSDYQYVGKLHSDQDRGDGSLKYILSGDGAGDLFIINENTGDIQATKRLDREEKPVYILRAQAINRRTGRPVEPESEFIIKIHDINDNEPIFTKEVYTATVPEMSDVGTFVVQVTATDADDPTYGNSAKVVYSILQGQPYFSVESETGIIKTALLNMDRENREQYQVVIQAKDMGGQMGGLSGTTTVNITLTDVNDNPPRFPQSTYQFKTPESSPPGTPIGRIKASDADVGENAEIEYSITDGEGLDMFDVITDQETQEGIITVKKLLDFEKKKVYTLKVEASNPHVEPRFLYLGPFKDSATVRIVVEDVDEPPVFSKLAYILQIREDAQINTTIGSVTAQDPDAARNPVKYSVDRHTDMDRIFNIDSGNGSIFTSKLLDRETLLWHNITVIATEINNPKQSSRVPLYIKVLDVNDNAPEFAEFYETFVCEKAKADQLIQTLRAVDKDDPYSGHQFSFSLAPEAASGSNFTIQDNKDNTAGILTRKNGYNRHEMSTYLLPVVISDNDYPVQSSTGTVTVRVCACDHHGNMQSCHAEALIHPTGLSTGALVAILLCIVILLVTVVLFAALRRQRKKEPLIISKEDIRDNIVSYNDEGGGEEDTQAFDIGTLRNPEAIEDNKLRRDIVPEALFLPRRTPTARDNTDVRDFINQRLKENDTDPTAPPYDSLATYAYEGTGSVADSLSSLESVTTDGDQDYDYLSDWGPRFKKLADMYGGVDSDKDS

hCDH6aa54-615 APPavi = target: T2, hCDH6aa54-615 APPavi (human, UniProt P55285 54-615); assay: SPR binning
T2 sequence: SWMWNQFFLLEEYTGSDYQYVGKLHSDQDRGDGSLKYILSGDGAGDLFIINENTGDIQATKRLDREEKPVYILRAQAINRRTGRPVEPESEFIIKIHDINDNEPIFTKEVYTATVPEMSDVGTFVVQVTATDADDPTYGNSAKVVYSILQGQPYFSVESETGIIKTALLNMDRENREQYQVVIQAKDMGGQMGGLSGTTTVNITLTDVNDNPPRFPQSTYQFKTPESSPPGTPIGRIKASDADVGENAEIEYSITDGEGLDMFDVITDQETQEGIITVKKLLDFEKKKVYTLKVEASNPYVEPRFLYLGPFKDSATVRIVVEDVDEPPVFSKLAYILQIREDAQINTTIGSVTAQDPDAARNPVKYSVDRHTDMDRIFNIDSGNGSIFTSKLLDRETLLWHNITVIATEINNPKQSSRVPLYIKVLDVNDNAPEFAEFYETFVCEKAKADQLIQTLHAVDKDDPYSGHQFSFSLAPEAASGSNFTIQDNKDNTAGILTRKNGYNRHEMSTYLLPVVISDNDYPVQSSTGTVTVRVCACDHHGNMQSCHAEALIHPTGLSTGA

rat CDH6 on cells = target: T3, rat CDH6 on cells (rat, UniProt P55280 54-789); assay: FACS on CHO-ratCDH6 cells
T3 sequence (looked up): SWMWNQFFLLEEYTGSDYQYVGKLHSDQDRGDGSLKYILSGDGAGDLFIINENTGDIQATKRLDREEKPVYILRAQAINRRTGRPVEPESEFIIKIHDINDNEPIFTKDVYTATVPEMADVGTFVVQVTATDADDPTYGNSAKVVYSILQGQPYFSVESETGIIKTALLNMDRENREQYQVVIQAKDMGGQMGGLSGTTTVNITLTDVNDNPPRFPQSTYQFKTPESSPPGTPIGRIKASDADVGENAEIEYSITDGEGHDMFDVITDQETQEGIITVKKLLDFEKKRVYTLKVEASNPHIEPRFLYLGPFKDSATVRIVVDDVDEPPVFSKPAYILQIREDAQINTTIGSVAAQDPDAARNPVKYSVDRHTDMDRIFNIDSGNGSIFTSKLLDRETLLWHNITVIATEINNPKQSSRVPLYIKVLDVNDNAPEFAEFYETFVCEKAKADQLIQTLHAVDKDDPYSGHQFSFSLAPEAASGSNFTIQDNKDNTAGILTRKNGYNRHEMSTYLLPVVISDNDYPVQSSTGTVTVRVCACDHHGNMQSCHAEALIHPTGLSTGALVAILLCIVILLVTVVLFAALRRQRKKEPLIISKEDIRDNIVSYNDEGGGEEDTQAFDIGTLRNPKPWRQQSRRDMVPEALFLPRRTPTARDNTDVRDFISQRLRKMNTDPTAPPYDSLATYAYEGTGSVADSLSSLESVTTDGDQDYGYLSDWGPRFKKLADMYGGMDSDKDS

EC50 (read off the curve) (cynomolgus CDH6 on cells): ~1 nM | response of secondary antibody on primary antibody-CDH6 complex (hCDH6aa54-615 APPavi): -1.82 | EC50 (read off the curve) (rat CDH6 on cells): ~1 nM
B1: NOV0712 (antibody, human IgG1, kappa, V domains shown)
VH: QVQLLESGGGLVQPGGSLRLSCAASGFTFSSHGMHWVRQAPGKGLEWVSVISGSGSNTGYADSVKGRFTISRDNSKNTLYLQMNSLRAEDTAVYYCARQWGSYAFDSWGQGTLVTVSS
VL: DIQMTQSPSSLSASVGDRVTITCRASQSISSYLNWYQQKPGKAPKLLIYAVSTLQSGVPSRFSGSGSGTDFTLTISSLQPEDFATYYCQQSGTFPPTTFGQGTKVEIKR
